Results reported in paper PMC7013354.

What was measured:
[1] = target: truncated E2 protein of CSFV C-strain with glutathione S-transferase tag (grE2) (classical swine fever virus, C-strain); assay: SPR
[2] = target: truncated E2 protein of CSFV C-strain with glutathione S-transferase tag (grE2) (classical swine fever virus, C-strain); assay: ELISA

B1: recombinant sdAbE2-1 (VHH)
VHH: QVQLLESGGGLVQPGGSLRLSCAASGYSFIDKTMAWVRQAPGKGLEWVSAIRMHNGSTYYADSVKGRFTISRDNSKNTLYLQMNSLRAEDTAVYYCARLSRRIQAKDKAKLKYWGQGTLVTVSS
- Kd [1]: 334 nM
- koff [1]: 0.00791 s⁻¹
- kon [1]: 23700 M⁻¹ s⁻¹
- OD450nm value [2]: 0.765

B2: recombinant sdAbE2-2 (VHH)
VHH: DVQLVESGGGLVQAGGSLRLSCTASGFTFDDYAMAWFRQPPGKEREGVSCISSSGGSTWYADSVKGRFTVSRDNAKNTLYLQMNSLKPEDTAMYYCAADWGRLCVVRGPRNEYKYSGQGTQVTVSS
- Kd [1]: 13.5 nM
- koff [1]: 0.00859 s⁻¹
- kon [1]: 635000 M⁻¹ s⁻¹
- OD450nm value [2]: 0.743
